From patent US20240287208A1 (CONCEPT TO MEDICINE BIOTECH, published 2024)

Experiments:
[1] = biological target: T1, human CD40 on the cell surface (human, UniProt P25942 21-277); experiment: FACS, human dendritic cells, MFI
T1 construct: whole, on cells; also called cell surface CD40; Jurkat-CD40

[2] = biological target: T1, human CD40 on the cell surface; experiment: FACS, Jurkat cells overexpressing human CD40, PE anti-human IgG, MFI
Protocol: To evaluate the binding affinity of 5T4-CD40 bispecific antibodies to cell surface CD40, bispecific antibodies with formats of b 1 (42p155z2), b12 (42p155z2), b13 (42p155z2), b16 (42p155z2), b17 (42p155z2) and b18 (2p1130) were tested in Jurkat cell lines that overexpressed CD40 by FACS. A total number of 1×10⁵ Jurkat-CD40 cells in each well were incubated with 5-fold serially diluted antibodies starting from 100 nM for 30 minutes at 4° C. in FACS buffer. After wash by FACS buffer, PE conjugated-anti-human IgG antibody was added to each well and incubated at 4° C. for 30 minutes. After wash, MFI of PE was evaluated by MACSQuant Analyzer 16.

T1 sequence (P25942 21-277): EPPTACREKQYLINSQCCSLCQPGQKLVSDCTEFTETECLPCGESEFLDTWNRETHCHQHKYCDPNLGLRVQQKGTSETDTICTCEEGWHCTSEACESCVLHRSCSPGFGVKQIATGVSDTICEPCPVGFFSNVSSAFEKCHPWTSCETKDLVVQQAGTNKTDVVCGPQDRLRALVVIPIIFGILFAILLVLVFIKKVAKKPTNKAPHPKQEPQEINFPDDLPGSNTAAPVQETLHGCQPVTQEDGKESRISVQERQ

EC50 (read off the curve) [1]: ~0.7 nM
EC50 (read off the curve) [2]: ~0.5 nM
B1: b16 (42p155z2) anti-5T4/CD40 bispecific antibody (bispecific antibody, human IgG1, kappa, N297A)
heavy 1: EVQLQQSGPELVKPGASVKISCKASGYAFSSSWMNWVKQRPGKGLEWIGRIYREDGHTNYNGKFKGKATLTADKSSTTAYMQLTSLTSEDSAVYFCANGGAMDYWGQGTSVTVSSASTKGPSVFPLAPSSKSTSGGTAALGCLVKDYFPEPVTVSWNSGALTSGVHTFPAVLQSSGLYSLSSVVTVPSSSLGTQTYICNVNHKPSNTKVDKKVEPKSCDKTHTCPPCPAPELLGGPSVFLFPPKPKDTLMISRTPEVTCVVVDVSHEDPEVKFNWYVDGVEVHNAKTKPREEQYASTYRVVSVLTVLHQDWLNGKEYKCKVSNKALPAPIEKTISKAKGQPREPQVCTLPPSREEMTKNQVSLSCAVKGFYPSDIAVEWESNGQPENNYKTTPPVLDSDGSFFLVSKLTVDKSRWQQGNVFSCSVMHEALHNHYTQKSLSLSPGK
light: DIQMTQSTSSLSASLGDRVTISCRASQDISNYLNWYQQKPDGTVKLLIYYTSRLHSGVPSRFSGSGSGTDYSLTISNLEQEDIATYFCQQDNTLPWTFGGGTKLEIKRTVAAPSVFIFPPSDEQLKSGTASVVCLLNNFYPREAKVQWKVDNALQSGNSQESVTEQDSKDSTYSLSSTLTLSKADYEKHKVYACEVTHQGLSSPVTKSFNRGEC
heavy 2: not shown
notes: also called 1+2 b16 format; chimeric antibody b16 (42p155z2)
